Measurements as given in paper PMC12462963, “Quorum Sensing Inhibits Type III‐A CRISPR‐Cas System Activity Through Repressing Positive Regulators SarA and ArcR in Staphylococcus Aureus”.

B1: agr P2 promoter (dsDNA)
DNA 1: TACATTTAACAGTTAAGTATTTATTTCCTACAGTTAGGCAATATAATG
DNA 2: CATTATATTGCCTAACTGTAGGAAATAAATACTTAACTGTTAAATGTA
B2: Pcrispr1-26+24 (dsDNA)
DNA 1: CTTAATATATAGAAAATTATCATAATATTTGTCAAAAAAAGTGACATTTC
DNA 2: GAAATGTCACTTTTTTTGACAAATATTATGATAATTTTCTATATATTAAG
B3: Pcrispr1+4+20 (dsDNA)
DNA 1: TGTCAAAAAAAGTGACA
DNA 2: TGTCACTTTTTTTGACA
B4: Pcas-137-108 (Table S2: -156-127) (dsDNA)
DNA 1: AGAATGTGAAGTTATTAGTAAACTTAGCAA
DNA 2: TTGCTAAGTTTACTAATAACTTCACATTCT
B5: Pcas-142-103 (Table S2: -161-122) (dsDNA)
DNA 1: TAATGAGAATGTGAAGTTATTAGTAAACTTAGCAAAAGAT
DNA 2: ATCTTTTGCTAAGTTTACTAATAACTTCACATTCTCATTA
B6: Pcas-132-113 (Table S2: -151-132) (dsDNA)
DNA 1: GTGAAGTTATTAGTAAACTT
DNA 2: AAGTTTACTAATAACTTCAC
B7: Pcas-133-118 (Table S2: -152-137) (dsDNA)
DNA 1: TGTGAAGTTATTAGTA
DNA 2: TACTAATAACTTCACA

Key:
[1] = target: T1, ArcR-His6 (Staphylococcus aureus TZ0912) (UniProt Q2FUY1); assay: EMSA; conditions: EMSA: 750 mM NaCl, 50 mM Tris-HCl pH 7.4, 0.5 mM DTT, 0.5 mM EDTA (as printed for binding buffer), 20 ng probe in 20 uL, 30 min 37 C; 6% gel, 0.5x TBE
T1 sequence: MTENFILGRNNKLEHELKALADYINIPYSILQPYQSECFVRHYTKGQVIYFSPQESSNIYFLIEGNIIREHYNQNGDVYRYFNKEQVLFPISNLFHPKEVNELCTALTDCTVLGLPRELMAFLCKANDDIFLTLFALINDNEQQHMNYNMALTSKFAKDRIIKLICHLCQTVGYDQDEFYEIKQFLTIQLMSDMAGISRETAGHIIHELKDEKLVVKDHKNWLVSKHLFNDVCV

AgrA-His6 = target: T2, AgrA-His6 (Staphylococcus aureus TZ0912, UniProt Q5HEG2 1-238); assay: EMSA; shift from 0.25 uM; EMSA: 750 mM NaCl, 50 mM Tris-HCl pH 7.4, 0.5 mM DTT, 0.5 mM EDTA (as printed for binding buffer), 20 ng probe in 20 uL, 30 min 37 C; 6% gel, 0.5x TBE; conditions: protein: recombinant; tags: His6 (pET28a NdeI/XhoI); chain copies: 2; label: 5'-FAM; blunt
T2 sequence: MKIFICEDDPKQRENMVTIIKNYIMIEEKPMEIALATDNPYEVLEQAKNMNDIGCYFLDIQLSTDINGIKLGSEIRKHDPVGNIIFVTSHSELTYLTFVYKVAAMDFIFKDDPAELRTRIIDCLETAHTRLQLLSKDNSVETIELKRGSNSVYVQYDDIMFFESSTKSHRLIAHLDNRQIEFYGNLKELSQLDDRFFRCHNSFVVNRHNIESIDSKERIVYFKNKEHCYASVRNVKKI

ArcR-His6 [2] = target: T3, ArcR-His6 (Staphylococcus aureus TZ0912, UniProt Q2FUY1 1-234); assay: EMSA; 7.2 uM; EMSA: 750 mM NaCl, 50 mM Tris-HCl pH 7.4, 0.5 mM DTT, 0.5 mM EDTA (as printed for binding buffer), 20 ng probe in 20 uL, 30 min 37 C; 6% gel, 0.5x TBE; conditions: protein: recombinant; tags: His6 (pET28a NdeI/XhoI); chain copies: 2; label: 5'-FAM; blunt
T3 sequence: T1 sequence

ArcR-His6 [3] = target: T3, ArcR-His6; assay: EMSA; EMSA: 750 mM NaCl, 50 mM Tris-HCl pH 7.4, 0.5 mM DTT, 0.5 mM EDTA (as printed for binding buffer), 20 ng probe in 20 uL, 30 min 37 C; 6% gel, 0.5x TBE; conditions: protein: recombinant; tags: His6 (pET28a NdeI/XhoI); chain copies: 2; label: 5'-FAM; blunt

Molecule | binding [1] | binding result (ArcR-His6 [2]) | further results
CATATATAATAAGTATTTAATTTTAATATATTTAAACTAATAATAATCAAATATACACTATTAACTGAAGATTTCATTGACTTGACATTTATTAAACTTT (double strand) [Pcrispr1-276-177] | no binding | – | –
GGGAGAACTAGAGATAGAATTTGGAAAAAGATTGTTGTAAATAAAATTATTAATCAATCAAAATGTTTAGAAAACAATTTACATAATGAGAATGTGAAGTTAT (double strand) [Pcas-222-123 (Table S2: -241-142)] | no binding | – | –
ATATAGTAGCATGGTGTTAGTTGTCACAGTTTTTGACAGCCAAAATAACACTTGAACCTTTGTGGTTATGCTATTTATTAAAGTATCT (double strand) [Pcrispr1+25+112] | no binding | – | –
B1 | – | – | binding result (AgrA-His6): binds
B2 | – | binds | –
B3 | – | – | binding result (ArcR-His6 [3]): no binding
B4 | – | binds | –
B5 | – | binds | –
B6 | – | no binding | –
B7 | – | – | binding result (ArcR-His6 [3]): no binding
